Assay results: patent publication US20170368132A1 (published 2017)
Numbering of substitutions follows the chain as printed.

Assays:
[1] = biological target: T1, S. cerevisiae Rad51 (1-278) + H. sapiens Rad51 (218-339) (S. cerevisiae; H. sapiens, UniProt P25454 1-278); test: yeast two-hybrid, RAD51 hybrid construct
T1 construct: range 1-278; Y2H fusion in yeast; also called cerevisiae-sapiens hybrid construct of RAD51
T1 sequence: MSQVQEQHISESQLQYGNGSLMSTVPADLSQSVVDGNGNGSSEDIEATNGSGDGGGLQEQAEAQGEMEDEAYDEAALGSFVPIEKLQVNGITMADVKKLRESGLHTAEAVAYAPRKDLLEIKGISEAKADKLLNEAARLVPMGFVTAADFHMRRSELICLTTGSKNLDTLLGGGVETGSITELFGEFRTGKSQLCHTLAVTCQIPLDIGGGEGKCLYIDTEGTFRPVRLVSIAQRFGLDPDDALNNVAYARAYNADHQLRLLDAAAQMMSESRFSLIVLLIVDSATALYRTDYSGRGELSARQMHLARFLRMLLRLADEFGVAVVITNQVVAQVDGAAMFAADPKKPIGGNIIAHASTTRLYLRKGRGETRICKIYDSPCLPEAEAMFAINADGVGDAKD

[2] = biological target: T2, Rad51 (S208E; A209D) (human, UniProt Q06609 1-339); test: yeast two-hybrid, human RAD51 mutant
T2 construct: Human RAD51 mutant tested by Y2H; also called human RAD51 S208E A209D
T2 chain: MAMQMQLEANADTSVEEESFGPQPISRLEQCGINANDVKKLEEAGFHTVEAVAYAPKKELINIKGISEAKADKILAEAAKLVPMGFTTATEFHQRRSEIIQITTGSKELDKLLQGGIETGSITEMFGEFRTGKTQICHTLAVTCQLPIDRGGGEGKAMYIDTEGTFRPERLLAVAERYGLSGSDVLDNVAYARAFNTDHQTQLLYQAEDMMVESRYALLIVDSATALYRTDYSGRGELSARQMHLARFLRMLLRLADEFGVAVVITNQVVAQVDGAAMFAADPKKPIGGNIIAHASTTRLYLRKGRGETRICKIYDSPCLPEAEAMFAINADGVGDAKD
Protocol: (§1) The ability of peptides to bind human RAD51 with various mutations was then tested by Y2H assay. […] While mutations affecting BRCA2 binding had no effect on peptide binding, mutations that affected RAD51-AP1 binding did disrupt peptide binding. As these mutations were at residues 202, 205, and 206, they were consistent with the previous fusion data showing binding somewhere in the 190-218 region, and indicated the peptide SEQ ID NO.:5 contacts at least residues 202, 205, and 206 of RAD51.

[3] = biological target: T3, Rad51 (Q202R, Y205D, Q206A) (human, UniProt Q06609 1-339); test: yeast two-hybrid, human RAD51 mutant
T3 construct: Human RAD51 mutant tested by Y2H; also called human RAD51 Q202R Y205D Q206A
T3 chain: T2 chain with Q202R, Y205D, Q206A, E208S, D209A
Protocol: as §1

[4] = biological target: T4, Rad51 (S208L; A209E; M210A) (human, UniProt Q06609 1-339); test: yeast two-hybrid, human RAD51 mutant
T4 construct: Human RAD51 mutant tested by Y2H; also called human RAD51 S208L A209E M210A
T4 chain: T2 chain with E208L, D209E, M210A
Protocol: as §1

B1: compound 5 peptide sequence (SEQ ID NO.:5) (peptide)
peptide: KRRRRRRRKRLGVRLRVSRML
B1: no binding [1]; binds [2]; no binding [3]. B1: binds [4].
